± gives the standard deviation.
Assay: protein stability index of a GFP-peptide fusion (GPS, HEK-293T) (PSI 1-6); higher = more stable
[1] = treatment: DMSO, c terminus: a fixed tail appended
[2] = treatment: MLN4924 1 uM, 8 h, c terminus: a fixed tail appended
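Further: 24-mer peptide tiles fused after GFP, lentivirally expressed, FACS-sorted into six equal bins by GFP/DsRed ratio, decoded by Illumina sequencing, PSI is the read-weighted mean bin number.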

Row | Sequence | protein stability index [1] | protein stability index [2] | protein stability index (treatment: DMSO, c terminus: native) | protein stability index (treatment: MLN4924 1 uM, 8 h, c terminus: native)
1 | GIKAQVALRLAELARRRRRRQARR [NOP53] | 4.1 ± 0.34 | 3.85 ± 0.25 | – | –
2 | KCGSGARGGDGEVASAPLQPPVPS [TRADD] | 4.79 ± 0.24 | 4.78 ± 0.36 | – | –
3 | FFTVEFGLCKQDGQLRVFGAGLLS [TPH1] | 2.73 ± 0.57 | 3.09 ± 1.2 | – | –
4 | TVECYNPRTNEWTYVAKMSEPHYG [KLHL13] | 2.36 ± 0.1 | 2.52 ± 0.72 | – | –
5 | RCSSMHFLVAEWNEPSINFYKRRG [SAT1] | 2.86 ± 0.33 | 2.42 ± 0.28 | – | –
6 | GANINAQTEETQETALTLACCGGF [ANKRD17] | 4.63 ± 0.15 | 4.59 ± 0.31 | – | –
7 | ADSLASKVTRLKSLALDIDRDAED [BET1L] | 5.3 ± 0.2 | 5.21 ± 0.21 | – | –
8 | KVKRSLRQARKKGRHLELANQKLS [CCDC3] | 4 ± 0.26 | 4.39 ± 0.45 | – | –
9 | PGSASLAQSRLEDPGQDLVPKQAI [DLX1] | 4.83 ± 0.48 | 5 ± 0.34 | – | –
10 | NITDETPDNCEMFLNFNGMKLFLD [ZER1] | 3.62 ± 0.18 | 3.65 ± 0.46 | – | –
11 | TILLDGRRVRLELWDTSGQGRFCT [RAB40C] | 2.16 ± 0.2 | 2.14 ± 0.34 | – | –
12 | TKQWTLIAKHLKGRLGKQCRERWH [MYBL2] | 2.51 ± 0.68 | 2.26 ± 0.38 | – | –
13 | SATLRSFEGLMGTIKSKVSGGKRA [TPD52L3] | 3.51 ± 0.18 | 3.33 ± 0.56 | – | –
14 | EATTSDPQDLDMKKHRCKCCSIM [PALM] | – | – | 4.3 ± 0.24 | 4.58 ± 0.23
15 | FMPAMQFSIPPWRYDAEVVAIAQK [MYORG] | 2.33 ± 0.22 | 2.52 ± 0.18 | – | –
16 | FQMVLEGGVCCTVTLNFNVPGEFK [GFOD1] | 3.1 ± 0.41 | 3.14 ± 0.31 | – | –
17 | AVVQLYLALPPGAEHWTKEHCGAV [WAS] | 3.03 ± 0.59 | 2.71 ± 0.31 | – | –
18 | GLRLRLPRRESLLRGLCRPLRPLL [C6orf223] | 2.15 ± 0.13 | 2.2 ± 0.29 | – | –
19 | IIDSSRSVNTHDYAKVKEFIVDIL [MATN2] | 2.23 ± 0.2 | 2.37 ± 0.22 | – | –
20 | SPNLNVVDGRLTYPTCGIGYPVSS [SASS6] | 3.06 ± 0.44 | 3.14 ± 0.4 | – | –
21 | HSLVRSRHRIPEPEAAVLFRQMAT [TRIB3] | 3.18 ± 0.13 | 3.31 ± 0.15 | – | –

Row | Sequence | protein stability index [1] | protein stability index [2] | protein stability index (treatment: DMSO, c terminus: native) | protein stability index (treatment: MLN4924 1 uM, 8 h, c terminus: native)
22 | YAATTTPFTPLHIKVKPKRVGIFL [TRIM39] | 2.52 ± 0.58 | 2.81 ± 1.1 | – | –
23 | PIRCGEVLFAVGGWCSGDAISSVE [KLHL20] | 2.22 ± 0.42 | 2.34 ± 0.41 | – | –
24 | LSMVSECLFSLINGDDMFVTFAAM [MCOLN1] | 2.35 ± 0.43 | 2.31 ± 0.3 | – | –
25 | PTICMAYLMKTKQFRLKEAFDYIK [DUSP5] | 2.27 ± 0.47 | 2.54 ± 0.31 | – | –
26 | KLDTKYPYVCHAELNAIMNKNSTD [DCTD] | 3.52 ± 0.18 | 3.42 ± 0.11 | – | –
27 | MMDSRTSQQLQLIDEQDSYIQSRA [STX5] | 4.77 ± 0.15 | 4.74 ± 0.076 | – | –
28 | QAGGEGAGGELGISLNMCLLGALV [PBXIP1] | 2.92 ± 0.65 | 2.23 ± 0.33 | – | –
29 | GYRGYQYILECDHHGGDYKHWREW [CRYBA1] | 2.16 ± 0.25 | 1.93 ± 0.14 | – | –
30 | MNNAVRNLQELLELDSSSSLCVLV [CEP70] | 2.36 ± 0.29 | 2.32 ± 0.19 | – | –
31 | LIWVVGPVLAVVFIICIVIAILLY [PTPRD] | 2.35 ± 0.21 | 2.15 ± 0.29 | – | –
32 | TLHQRTHTEERPFKCNYCGKSFRQ [ZNF449] | 2.55 ± 0.33 | 2.91 ± 0.51 | – | –
33 | SYAFGKFPTVVWTWWIMFLSTFSV [SOAT1] | 2.98 ± 0.57 | 2.97 ± 0.29 | – | –
34 | AAVAQKPRSHFTTPAPMSSAWKTV [MYBL2] | 3.06 ± 0.14 | 2.97 ± 0.22 | – | –
35 | GQVIWGMSWAKLARQATNLKVNFF [FBXO39] | 2.2 ± 0.72 | 2.2 ± 0.52 | – | –
36 | NTIAFRHLFLLGYSDGADDTFAAY [MCOLN1] | 2.46 ± 0.66 | 2.33 ± 0.12 | – | –
37 | RWEPSGKAEPRLPDRVYIHPDSPA [TBX6] | 3.98 ± 0.11 | 4.13 ± 0.18 | – | –
38 | RKPAAGAQSAGTQQVAAVSSVSPA [BRD3] | 4.82 ± 0.12 | 4.86 ± 0.16 | – | –
39 | LITQQIIPVLYCMVFIAGILLNGV [P2RY14] | 3.37 ± 0.2 | 3.42 ± 0.44 | – | –
40 | ISPGRVYEYTSCTTFSTTSGYMEG [FBXO3] | 2.78 ± 0.22 | 2.69 ± 0.36 | – | –
41 | TENRYCVQLSQIQGLIGSVEEQLA [KRT17] | 3.1 ± 0.51 | 3.24 ± 0.22 | – | –
42 | YFCYKAILEFAEKEGMVSSGQNLL [PTPN9] | 2.2 ± 0.31 | 2.38 ± 0.46 | – | –

Row | Sequence | protein stability index [1] | protein stability index [2] | protein stability index (treatment: DMSO, c terminus: native) | protein stability index (treatment: MLN4924 1 uM, 8 h, c terminus: native)
43 | IKSSLKDEYQYSFWDLFRSKDNMR [SLC2A12] | 2.39 ± 0.23 | 2.3 ± 0.21 | – | –
44 | NEDPLVLLAWRCTKLSLLAIHGYT [FBXO33] | 3.05 ± 0.33 | 2.91 ± 0.65 | – | –
45 | GLDPEPLPLMDLCRRSVRLALGRE [SPSB1] | 4.02 ± 0.61 | 3.62 ± 0.2 | – | –
46 | LLNLVDHTEVVRDLTFAPDGSLIL [WSB1] | 2.24 ± 0.13 | 2.16 ± 0.16 | – | –
47 | VCGKSFSRTTCLFLHLRTHTEERP [ZNF8] | 2.23 ± 0.56 | 1.93 ± 0.38 | – | –
48 | RYIVNGSHEANKLQDMLDGFIKKF [EIF5] | 1.98 ± 0.23 | 2.17 ± 0.34 | – | –
49 | QPLADEGPPGRSIGGAAPSLGALD [SERTAD1] | 5.19 ± 0.24 | 5.32 ± 0.15 | – | –
50 | TTGSKELDKLLQGGIETGSITEMF [RAD51] | 3.51 ± 0.27 | 3.76 ± 0.51 | – | –
51 | YLEVLETMDNKKGRRYEAVKWMVV [CLCN6] | 2.4 ± 0.72 | 2.25 ± 0.28 | – | –
52 | CVDRQEVAEITKQLPPVVPVSKPG [TCAP] | 4.7 ± 0.2 | 4.63 ± 0.15 | – | –
53 | ALRNFACLTTGDVIAINYNEKIYE [UFD1] | 2.21 ± 0.49 | 2.29 ± 0.46 | – | –
54 | MSEADGLRQRRPLRPQVVTDDDGQ [APMAP] | 5.36 ± 0.28 | 5.37 ± 0.33 | – | –
55 | SSRDKLTEMAASSQGNFEGNFESL [FUNDC2] | 4.88 ± 0.28 | 5.03 ± 0.42 | – | –
56 | QPGLLHLQSCGDLHTFTPAGRPRA [FAM189A2] | 5.66 ± 0.44 | 5.53 ± 0.18 | – | –
57 | FRKDSVLNILIQSLDWETFEQYCA [INTS3] | 2.51 ± 0.61 | 2.04 ± 0.18 | – | –
58 | NSAAATSPKGTLPPAALESSDSAN [CAMK2B] | 5.39 ± 0.096 | 5.37 ± 0.21 | – | –
59 | PIRSISLRSCYFSDPDCSMRPTLI [FBXO39] | 2.13 ± 0.36 | 2.07 ± 0.27 | – | –
60 | PSPPPGSHYTSPSENMWNTGSTYN [CARM1] | 3.8 ± 0.43 | 3.81 ± 0.23 | – | –
61 | PLELLPGGPARPLGPGPAAPRLLK [CEBPD] | 4.33 ± 0.12 | 4.54 ± 0.14 | – | –
62 | TAYIRVKVDGPRSPSYGRSRSRSR [SRSF1] | 3.75 ± 0.21 | 4 ± 0.29 | – | –
63 | NTLKRENSSPRVMQRKQSLGKPDQ [DLC1] | 4.85 ± 0.24 | 4.83 ± 0.38 | – | –

Row | Sequence | protein stability index [1] | protein stability index [2] | protein stability index (treatment: DMSO, c terminus: native) | protein stability index (treatment: MLN4924 1 uM, 8 h, c terminus: native)
64 | VQQDPALSSNREAHQHRDKMQQSK [CSNK1G3] | 5.16 ± 0.54 | 5.27 ± 0.21 | – | –
65 | LYVVIPTRRSTAEAFQIVLSHLLG [SPNS1] | 2.72 ± 0.4 | 2.71 ± 0.33 | – | –
66 | LLLSHIHASSYISPEKEEQYIAQF [PRAME] | 2.42 ± 0.54 | 2.37 ± 0.4 | – | –
67 | GKSFRQRPSLVIHLRIHTGEKPYK [ZNF449] | 2.72 ± 0.53 | 2.61 ± 0.65 | – | –
68 | SPKGTLPPAALESSDSANTTIEDE [CAMK2B] | 5.64 ± 0.16 | 5.54 ± 0.29 | – | –
69 | SILNSCEDPVPGMLFFLPPGQHLS [FBXO34] | 2.46 ± 0.2 | 2.41 ± 0.22 | – | –
70 | RLQEVRESIRRAQVSQVKGAARLA [FCHSD1] | 3.17 ± 0.45 | 3.3 ± 0.28 | – | –
71 | RTVQSLEIDLDSMRNLKASLENSL [KRT18] | 3.14 ± 0.45 | 3.25 ± 0.27 | – | –
72 | AASPGEAPAASEGAAAPATPTPVA [SNAP91] | 5.38 ± 0.15 | 5.53 ± 0.25 | – | –
73 | NCRLQSPYFSPSASFHHKLHHKRL [CBY2] | 2.32 ± 0.24 | 2.33 ± 0.16 | – | –
74 | QQKKDLEILHQQNIHQLQNRLSEL [SASS6] | 3.96 ± 0.21 | 4.13 ± 0.2 | – | –
75 | AVPTDEARAFAEKNGLSFIETSAL [RAB11A] | 2.9 ± 0.34 | 3.37 ± 0.52 | – | –
76 | TPATTTEPPKPTFPAYTQSTASTT [ZNF207] | 4.99 ± 0.12 | 5.1 ± 0.15 | – | –
77 | LKGVKQACCEFLESQLDPSNCLGI [KLHL12] | 2.66 ± 0.66 | 2.51 ± 0.29 | – | –
78 | RCPSSSLHMSQRERTWPPPAMSPY [C22orf15] | 2.89 ± 0.3 | 2.9 ± 0.27 | – | –
79 | HGEGNHIYAYDAKIEIQTLTGLFK [CASP6] | 2.17 ± 0.22 | 2.12 ± 0.33 | – | –
80 | RSGAGVALLNDHIYVVGGFDGTAH [KLHL12] | 2.78 ± 0.43 | 2.37 ± 0.46 | – | –
81 | PGPGGTMKRHSSRDAAGKPQRPRS [FCHO1] | 5.04 ± 0.16 | 5.12 ± 0.17 | – | –
82 | FLKKSQLTEHKRIHTGKKPHVCSL [ZNF649] | 2.76 ± 0.36 | 2.75 ± 0.36 | – | –

Reference: the supplement of paper PMC10567573
